Test results published in the DeepSol protein solubility set.

Assay: soluble on expression in E. coli; label from the status in PepcDB or PDB records
For “MGSDKIHHHHHHAAGLVVNDNDLRNDLAWLSDRGVIHLSLSTWPLSQEEIARALKKAKPSYSSEQVVLARINQRLSALKADFRVTGYTSTDQPGTPQGFGQTQPADSSLGLAFNNSGEWWDVHLQGNVEGGERISNGSRFNANGAYGAVKFWNQWLSFGQIPQWWGPGYEGSLIRGDAMRPMTGFLMQRAEQAAPETWWLRWVGPWQYQISASQMNQYTAVPHAKIIGGRFTFSPFQSLELGASRIMQWGGEGRPESFSSFWDGFTGHDNTGTDNEPGNQLAGFDFKFKLEPTLGWPVSFYGQMVGEDESGYLPSANMFLGGVEGHHGWGKDAVNWYVEAHDTRTNMSRTNYSYTHHIYKDGYYQQGYPLGDAMGGDGQLIAGKVELITEDNQRWSTRLVYAKVNPENQSINKAFPHADTLKGVQLGWSGDVYQSVRLNTSLWYTNANNSDSDDVGASAGIEIPFSL”, the “soluble on expression in E. coli” value was “not soluble”.
With “MLQNPPRITSTASIVGPKEGKGPLRLFFDNIIEDEMWGEKSWEKAESKLIRETFSKVLQKGNKTSQEIDYVISGDLLNQCIAANFGLRESDVPFFGVYGACSTIAESMSIGAMLVDGGFADNVVCITSSHFCSAEKQFRFPLELGTQRPPSAQWTVTGSGGVLISNDGSGPYITHITTGKIVDMGIKDANNMGAAMAPAAVDTIVTHFKDTGFTPESYDLILTGDLGAIGREICVELTREQGFNIENIYNDCGLMIYDREKQDTHAGGSGCGCAATVFAGFVYKKLMDGTLKNVLFVATGALLSPVSTQQGESIPSIAHAISITTSPERLEHHHHHH” the “soluble on expression in E. coli” value was “not soluble”.
With “MGFVDRGGGREAKGASLRRSKNNPGASIAKNKSAKKDYTTPATRATPTPPPACLPVLKALMAAASAGATAMEATAASTVTDFEKALAAVRDAAQTGGSPYIDAAVALLSRKLEEDREGIFRRAAEEGKLAAVVCWCGEAERQSLLLNTCVQHNKLYRGTLEQQQRSSATGGGARHVHFNVDGAVVASVAAAVTTSSSSTKASILLYAVLGIHVNSIDRVNMRLHDQWVKELEANVKHSDVVGVLTGLNLSREHGTHYAQERLFKECWRVAAEVRLPLVLHLGAADAASLTETVNRAAKLLDELLAATSATADGAGAAPSAVVLHNGLRALHASTAMQQLVRAHRPAAGRTAAAVPFYVLATADGLAVAKTEGSETEVTATTDSGPSVEALAALLPPRAGLGSNSDSATTTSSGGDAAVHLSQLLIGTGAPWGTPQNLPDPYLCTLPNEPGNYAYVVQTLYDAMRAPPPPPTAAAAAAELTLADLSAIAAVNYLLAFFHECVWEQEQQQQQQRSGSDDETTADALQQQQRRWVESQQPVVVAGLADSDVKRDLEALLAEAAKERERMEQERLREEAGLAQARSEELQQKRSRRERKKNVKANNRSNFTHFRNKDFAPRQSKQEKPAHLREVVGIREGGSTDVDGRERTPSSSSAASDSGSAGGPNSLAAQVERLLKANAAHRDPECRAQRQPAGRGKGRGQNALAGSRKVGRSADMKSSEQPQQQYGAGAGGKAENGSPSDGSDDDDERYTRTRAL” the “soluble on expression in E. coli” value was “not soluble”.
In the case of “MNKVVLLCRPGFEKECAAEITDKAGQREIFGFARVKENAGYVIYECYQPDDGDKLIRELPFSSLIFARQWFVVGELLQHLPPEDRITPIVGMLQGVVEKGGELRVEVADTNESKELLKFCRKFTVPLRAALRDAGVLANYETPKRPVVHVFFIAPGCCYTGYSYSNNNSPFYMGIPRLKFPADAPSRSTLKLEEAFHVFIPADEWDERLANGMWAVDLGACPGGWTYQLVKRNMWVYSVDNGPMAQSLMDTGQVTWLREDGFKFRPTRSNISWMVCDMVEKPAKVAALMAQWLVNGWCRETIFNLKLPMKKRYEEVSHNLAYIQAQLDEHGINAQIQARQLYHDREEVTVHVRRIWAAVGGRRDER”, the “soluble on expression in E. coli” value is reported as “soluble”.
For “MSLKGQNQHSVLRNFPVLGRIRYISEKIGPELRQYFFANDNEGKPFSRSDYKNIVLAGKYKSRMTSFGTGKDYLEGFYIQNTMFPLQATELHIDHTEFISTFLYHIENERLFSREEYRKSAQVDPFFLTDEHAVVLGSNLKHPFKIKRLVGQSGMSYGALGKNAITALSMGLAKAGTWMNTGEGGLSEYHLKGNGDIIYQIGPGLFGVRDHDGNFNRDMFINLAEHNNVRAFEIKLAQGAKTRGGHMEGNKVTEEIARIRNVKPYETINSPNRFDFIKNPTDLLNFVNHLQSIGQKPVGFKIVVSKVEEIEALVKTMIEIDTYPSFITVDGGEGGTGATFQELEDGVGLPLFTALPIVSSMLEKYGIRNKVKIFASGKLVTPDKIAIALGLGADLVNIARGMMISVGCIMSQQCHLNTCPVGVATTDPKKEKGLIVDEKQYRVTNYVTSLHEGLFNIAAAVGVHSPTEITSDHIIYRQLDGTTTSIQDYKLKLISEGHHHHHH”, the “soluble on expression in E. coli” value was “not soluble”.
With “MDVPTAISIERVVKEMKSLEITLHITPTGPSVGFANINGFNFQFIVLPSVLIARADRYLSETKSDPRIYLASNEVNNRTVRGGIFVVDNSAAPIMRAEVDICSAAGLTDSQLHMCLSNSVNDVLDLQHSWAKATAI” the “soluble on expression in E. coli” value was “not soluble”.
In the case of “MGSDKIHHHHHHMVKVVKFGGSSLASAEQFTKVGDIIRSDESRKYVVPSAPGKRNSKDTKVTDMLYACYDLAENDQDFKVMLRKIKDRYDSIINGLHLKLALDEEFKIIAENFKAKAGADYAASRGEYLNGIIMANYLGYEFIDSATVIFFDENGNFDAEKTDKVLSKKLEQTEKAVIPGFYGAGPDGKVVTFSRGGSDITGSIVSKACHASMYENWTDVSGCLVADPRIIDNPQPIKVVTYRELRELSYMGASVLHEDAVFPVRKAGIPINIRNTNDPEAPGTLIVESTCQKPDYTITGIAGKKGFVAVNIDKDKMNSEVGFCRKALQAFEENGISIEHMPSGIDTMTVFVHQAEFEGKEQQVISSIRRLAHPDIIDLESDLALIAVVGRGMKSNRGTAGRIFSALAHANINVRMIDQGSSELNIIIGVSNDDFDKAIKAIYDIFVVTQL”, the “soluble on expression in E. coli” value is reported as “not soluble”.
For “MSLKKVVIIGGGAAGMSAASRVKRLKPEWDVKVFEATEWVSHAPCGIPYVVEGLSTPDKLMYYPPEVFIKKRGIDLHLNAEVIEVDTGYVRVRENGGEKSYEWDYLVFANGASPQVPAIEGVNLKGVFTADLPPDALAIREYMEKYKVENVVIIGGGYIGIEMAEAFAAQGKNVTMIVRGERVLRRSFDKEVTDILEEKLKKHVNLRLQEITMKIEGEERVEKVVTDAGEYKAELVILATGIKPNIELAKQLGVRIGETGAIWTNEKMQTSVENVYAAGDVAETRHVITGRRVWVPLAPAGNKMGYVAGSNIAGKELHFPGVLGTAVTKFMDVEIGKTGLTEMEALKEGYDVRTAFIKASTRPHYYPGGREIWLKGVVDNETNRLLGVQVVGSDILPRIDTAAAMLMAGFTTKDAFFTDLAYAPPFAPVWDPLIVLARVLKEGHHHHHH”, the “soluble on expression in E. coli” value was “soluble”.
For “MRSTELIVERGPSRNEAHSMVNESPSNQPQEQFSLEPKWKTAAAPSCESSSEEAAYPKGNEEEEHNEARPRALCRLTDVSTDHYAKNPDSEEEDAQDEAEGDGSHVGAIPAEAATTARPHDLHKAKKKRSNHAKETKAAETLEKPAAPRKKKPMYKVNIGNVERHPPVPEGVNTPRSVMLCKECGVNPSELARYDRKHFQGAGVSDEVAELRYQSYEKRRCARMAQLKPAYKESIKYDLEDPVSVPAAKRKAQAAEEAPARPAAAAQAAAPPPKLLDEEAQMQRQFEAQHQRLLEQERRKTVTSGYDSDGRRRSPPRAGHFYGASVRSVGSAKSPGRYSRNTSVGARPTVDQPYSAAKIYSASIVESRPLTQSEVIMIDEINEREAHRIDTQERAFVIQENKQLMHVERELIRERLACVRVQKNAEDREKMQQKMHKRNEARQNVVAKRRKKLEAERQARIQDSVAEKAARCHTTNPYASLMLRQMSGFSTCHTSSSFPSQGADVSASREQSSEAE”, the “soluble on expression in E. coli” value was “soluble”.
With “MSGFYNRGKMKFIHAADIHLGNPISGIDRKINLPEEVKKQIALATFTAFSNVIKLAVDRHVDFVLFPGDLFDSSQQSAYLYNFLNQQFQNLKEAGIEAFISFGNHDFQSDVENDFIWPENVHAFPKSKAKTFFHDSWDGKRVAITGTSFVVRNPRESLVPLYPSRDQSATYQIGMYHGSQGNSSANNYAPFSVGDLQALNYDYWALGHIHVRQVLSKNPAIVYSGDPQGLDLTETGEKGVYFVSDENDQGGLTAEFVPCSSFVFDSFELSINDQSAISNISDLIVQELLSFNHKKMSLNAIRVNLSASLPEKILDQLTDTSFLDLVNSKTIREKQFLIKMDLNVDQKKDNFNQLEERYWQAAKNDVFDEQSFNQALLRTFNSNQQFVIRHFTDPNVQAKLMSKAEQIISERIS” the “soluble on expression in E. coli” value was “not soluble”.
For “MVSRSFFLTHTFKDVSKLGEGGSYSSDIEVRHDIPWKIRIFKKEGFLGVNLHCEKEECFETKKWTFQTKFTMKLVAVSDFPVSQHDSDNSFVLKHNFKNISRLVEDERDYSDTEKHYNALWSFKIRKFNEHLGIWLICEKEIWEERRWSINLQYELKLISASGKVRSAQYTNVFGVGSLWGILKFISWNNLEKDYVTNDSIDVEVLVKIIEFTELPCTEKTFVLSHIVKNMSSIEDGWKTFSDTQTRFNIPWKLQIRRQDGFVELLLHCSKQLDESRSWSIKTEYQFKLVSTNGRSVAFYGEKVFEKPVGSGWDKLIRWENWASRCNDEFVFEASVRILNTTGIEDENDVDRFSGFAIPVEGQEYSMEKWLEMAFDH”, the “soluble on expression in E. coli” value was “not soluble”.
With “MAHHHHHHMQYQRAALVIASPALTQREVEFTKSAWLAGLRPDQRTAQQMREVSVEFPLLSRDVVVVRCGGSVVTAAIATALVEPTPQRPKHGLLHFSVRRLHTERDSPAADGSTQKNLVAFLERLVRTGGVIDTAGLCVLPGQKVWSLTVDVTIMNDEGNCNDAAVWAVIALLMHHRRPELTVRGSSVIVHPPHEREPVPLSVQHTPLPFTFAITMAPTEREKALNHQRALSATGSSSGPQPSSGVGNSIDTASAFAIDGTSPQPLGVVVDPTTAESLAAASSIVVAINAEGQVCTVVKAEGCSIHLKDLNACIEAAGTLAPRVLDLIKVAMEAHDERRKTAMKGQFAWAQKRSGVGKVEQACVKKIKTET” the “soluble on expression in E. coli” value was “not soluble”.
For “RIVLQTSAHTLGDVVVTGYQTLERRKLTAAISKVEVSDAMVGAAKSIDQALTGQIAGVSVTNTSGAPGSPAKIRIRGTASMNGTQDPLWVLDGIPLEGTDIPKMDNKSSDNDIVNIGQSSIAGLSPNDIESITILKDAAATAIYGARAANGVIVVTTKRGKTGK”, the “soluble on expression in E. coli” value was “not soluble”.
In the case of “MGSDKIHHHHHHMSQYAEMSLVYDQLTQDQPYEKWFEIVKNHCKDESNILDIGCGTGSLTVQLEALGNVTGMDLSVDMLTVAAQKSANVNWLEGDMTSFDLQQQFDIITIFCDSLNYLQDETAVIETFINVYHHLTDSGVFIFDVHTVYKMMTLFNNQSYIDDKGDIFLAWDAVQGDLPLSVYHDMTFFIRHEDETYSRFDESHFQRTFDEKTYLSWLAQVGFKHVETFTDFNIDEHNEDTERLFFIAKK”, the “soluble on expression in E. coli” value is reported as “not soluble”.
With “MRHMMQLKAPFFSDNATDLPFWWEEARPSPVQTDDLPSSTEVAIIGAGFTGLNAALVLARAGKQVSVFDADEPGYGASSRNGGFLGPGWAFFDTGMQYGADTARQIVEESFHSLQHVKDVVAMEKIDCDLKEVGYFKGAMTPRVYDAIGRNMDRIRKIIPCNVYMVPRSEQHKEIGSDLYHGGVAMPGYCGIHPAKYVKGLAEAANRLGVKIYSNARVSDLEGKNGGFSFKVGSRTIAARQILLAANGYSGSLLPHLKRRIIPVGSGLIATEQLPVEVMDRLMPKRQMLAGSQRVVTYYRPSPDNTRIVFGGRVLNMSGAHESAVANAKYIRSLLLAVFPELASAKITNYWHGQLGFTFDHLPHVQTIDGMYFAGGYNGTGVARASWLGSRVAYEMLGSDLGKTVYRNLPFDGRRFYNGKPYFLPLAVWYYGMLDKWDQRLEHHHHHH” the “soluble on expression in E. coli” value was “not soluble”.
